# From US20090299038A1 (LIVTECH, published 2009)
# Changes are numbered by the printed parent chain. Where “and” joins values, the source holds several entries; their conditions need not be identical. Equal values may be shown once.
# T1: purified recombinant hFA-1 protein (hDlk-1 extracellular region) (human, UniProt P80370 24-303)
# T1 construct: also called human FA1; FA-1 region of hDlk-1; not shown: C-terminal Myc tag and His tag from the pcDNA4/Myc-His vector
# T1 sequence: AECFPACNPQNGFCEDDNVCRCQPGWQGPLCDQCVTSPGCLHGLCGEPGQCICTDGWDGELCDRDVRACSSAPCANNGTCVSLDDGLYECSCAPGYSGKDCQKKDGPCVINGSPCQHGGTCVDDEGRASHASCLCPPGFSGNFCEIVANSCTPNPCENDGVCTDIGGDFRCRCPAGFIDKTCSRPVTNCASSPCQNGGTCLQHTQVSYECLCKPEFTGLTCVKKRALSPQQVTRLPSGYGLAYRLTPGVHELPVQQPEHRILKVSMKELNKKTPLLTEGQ
# T2: hDlk-1 EGF-like motif deletion mutant EGF (5-6) expressed on COS-7 cells (human, UniProt P80370 170-245)
# T2 construct: also called hDlk-1 (EGF 5-6)-pME18-CHFX
# T2 sequence: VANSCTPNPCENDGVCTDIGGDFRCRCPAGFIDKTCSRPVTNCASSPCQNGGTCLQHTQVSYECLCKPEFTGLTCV
# T3: hDlk-1 EGF-like motif deletion mutant EGF (4-6) expressed on COS-7 cells (human, UniProt P80370 131-244)
# T3 construct: also called hdlk-EGF (4-6)/pME18S-CFHX
# T3 sequence: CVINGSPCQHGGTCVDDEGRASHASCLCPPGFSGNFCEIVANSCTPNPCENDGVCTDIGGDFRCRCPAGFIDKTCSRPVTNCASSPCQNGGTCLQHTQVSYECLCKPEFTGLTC
# B1: mouse anti-hDlk-1 monoclonal antibody clone DI-2-14 (antibody, V domains shown)
# VH: EVQLQQSGAELVKPGASVKLSCTASGFNIRDTYIHWVKQRPEQGLEWIGRIDPPNGNLKYDPKFQGKATITADTSSNTAYLQFSSLTSEDTAVYYCARSDGYSFAYWGQGTLVTVSA
# VL: DIVMTQAAPSVPVTPGESVSISCRSSKSLLHSNGNTYLYWFLQRPGQSPQLLIYRMSNLASGVPDRFSGSGSGTAFTLRISRVEAEDVGVYYCMQHVEYPFTFGSGTKLEIK
# notes: also called mouse DI-2-14 antibody; clone DI-2-14 (mouse IgG1)
# B2: mouse-human chimeric DI-2-14 antibody (ChDI-2-14) (antibody, V domains shown)
# VH: B1 VH
# VL: B1 VL
# notes: also called DI-2-14 IgG1/κ
# B3: humanized anti-hDlk-1 monoclonal antibody HuDI-2-14-1 (antibody, V domains shown)
# VH: QVQLVQSGAEVKKPGSSVKVSCKASGFNIRDTYIHWVRQAPGQGLEWIGRIDPPNGNLKYDPKFQGKATITADTSTSTAYMEFSSLRSEDTAVYYCARSDGYSFAYWGQGTLVTVSS
# VL: B1 VL with A7S, A8P, P9L, V11L, S18P, V19A, R44K, R79K, S105Q, L109V
# notes: also called HuDI-2-14-1 IgG1/κ
# B4: humanized anti-hDlk-1 monoclonal antibody HuDI-2-14-2 (antibody, V domains shown)
# VH: B3 VH with F83L
# VL: B1 VL with A7S, A8P, P9L, V11L, S18P, V19A, R44K, R79K, S105Q, L109V
# notes: also called HuDI-2-14-2 IgG1/κ
# Key:
# [1] = biological target: T1, purified recombinant hFA-1 protein …; test: ELISA method (Djavadi-Ohaniance): antibody 0.5 nM equilibrated with hFA-1 in solution, then added to immobilised hFA-1
# [2] = biological target: T2, hDlk-1 EGF-like motif deletion mutant …; test: FACS of transfected COS-7 cells
# [3] = biological target: T3, hDlk-1 EGF-like motif deletion mutant …; test: FACS of transfected COS-7 cells
# [4] = biological target: T1, purified recombinant hFA-1 protein …; test: ELISA, antibody dilution series on immobilised hFA-1
Binder,Kd [1],binding result [2],binding result [3],EC50 [4]
B1,4.02 nM and 9.26 nM,no binding,no binding,< 0.01 µg/mL
B2,3.4 nM,–,–,< 0.01 µg/mL
B3,2.8 nM,–,–,< 0.01 µg/mL
B4,3.1 nM,–,–,< 0.01 µg/mL
